Reference: the supplement of paper PMC12338614

B1: library; numbered along this chain (parent)
chain: MEVVDPQQLGMFTEGELMSVGMDTFIHRIDSTEVIYQPRRKRAKLIGKYLMGDLLGEGSYGKVKEVLDSETLCRRAVKILKKKKLRRIPNGEANVKKEIQLLRRLRHKNVIQLVDVLYNEEKQKMYMVMEYCVCGMQEMLDSVPEKRFPVCQAHGYFCQLIDGLEYLHSQGIVHKDIKPGNLLLTTGGTLKISDLGVAEALHPFAADDTCRTSQGSPAFQPPEIANGLDTFSGFKVDIWSAGVTLYNITTGLYPFEGDNIYKLFENIGKGSYAIPGDCGPPLSDLLKGMLEYEPAKRFSIRQIRQHSWFRKKHPPAEAPVPIPPSPDTKDRWRSMTVVPYLEDLHGADEDEDLFDIEDDIIYTQDFTVPGQVPEEEASHNGQRRGLPKAVCMNGTEAAQLSTKSRAEGRAPNPARKACSASSKIRRLSACKQQ

Variants of: B1
Assay: STK11 functional score (HeLa growth suppression), rescaled enrichment; synonymous median = 1, nonsense median = 0 (normalised score)
Conditions: with HeLa; variant type: missense
Method in brief: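 In HeLa, Bxb1 integrated POPCode codon-randomised libraries of codon-optimised STK11 at an AAVS1 landing pad; three regions were each transfected three times. Integrants, marked as BFP-negative and mCherry-positive, were FACS-sorted 4–5 days after electroporation and expanded for about two weeks before tiled gDNA amplicons were sequenced on NextSeq (~2 million reads per tile). Each functional score is a post/pre-selection log ratio corrected to wild type, rescaled to the synonymous and nonsense medians, and merged across codons and replicate transfections, with error estimated by bootstrapping.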

STK11 functional score, by site and new letter:
L182: S 0.561 | A 0.345 | E -0.122 | V 0.907 | H -0.198 | N 1.01 | T 1.12 | I 1.56 | C 1.17 | G 0.327 | Y -0.00243 | P -0.0858 | D 0.257 | F 1.03 | W 0.0906 | R 0.129
T186: N 0.218 | A 1.16 | H 0.54 | V 1.24 | F 1.33 | R 1.11 | C 1.19 | P 1.52 | Y 1.14 | W 0.861 | S 1.1 | M 0.369 | L 1.54
N181: V -0.181 | Q 0.708 | C -0.0246 | S -0.0295 | M -0.246 | T -0.449 | P -0.0573 | R -0.0333 | A 0.0629 | W -0.0742 | Y -0.0251 | E -0.231 | I -0.248 | L -0.122 | F -0.0897 | K -0.18 | D -0.134 | G 0.0242 | H 0.134
D194: I -0.258 | R -0.0399 | L -0.0619 | S -0.236 | G -0.36 | Y -0.089 | C -0.228 | V -0.261 | H -0.252 | P -0.348 | F -0.213 | E -0.268
G188: Y 1.6 | I 1.04 | C 0.212 | A 0.938 | D 1.43 | S 1.05 | P 1.36 | F 0.918 | M -0.0265 | R 1.19 | L 0.732 | W 0.946 | V 0.388
T189: N 0.455 | G 0.924 | L 1.24 | C 1.15 | P 1.12 | V 1.3 | W 1.2 | I 1.33 | R 1.41 | F 1.25 | Y 0.71
I192: M 1.25 | N 1.23 | C 1.43 | Y 1.11 | V 1.33 | F 1.13 | T -0.0391 | W 0.0777
V197: S 1.58 | R 1 | L 1.05 | W 1.25 | A 1.26 | C 1.55 | G 0.372 | M -0.102
L195: R 0.0408 | V 0.433 | D 1.64 | I 1.44 | E 1.59 | F 1.46 | P 1.49 | W 0.87 | G 0.969 | A 1.17 | S 0.972 | T 1.67
K178: T 0.951 | S 0.586 | V 0.434 | L 0.63 | P -0.0986 | I 0.388 | R 0.681 | W 0.413 | M 0.202 | G 0.325 | F 0.35
A200: F 0.455 | C 1.13 | H 1.49 | V 0.901 | W 0.861 | L 0.6 | G 0.439 | S 0.652 | Y 1.29 | P 1.35 | R 0.878 | T 1.02 | D 0.859 | I 1.31 | M 1.65
E199: Y 1.04 | S 1.21 | G 1.07 | H 1.39 | R 1.67 | C 1.38 | P 0.87 | V 1.49 | W 0.303 | N 1.54 | Q 0.887 | A 1.44 | K 1.2 | I 0.977 | F 1.37 | L 0.971
K191: A 1.12 | S 1.17 | R 1.42 | L 0.262 | G 0.729 | F 0.589 | I 1.19 | N 0.186 | C 0.0918 | T 1.16 | V 1.19 | D -0.393 | W 0.459
